Laboratory results reported in publication PMC6932780, “Comprehensive analysis of putative dihydroflavonol 4-reductase gene family in tea plant” (PLoS ONE, 2019).

Assays:
Test in all cases: purified protein
Assay type in all cases: biochemical, Camellia sinensis
Conditions in all cases: 0.24 mM NADPH, citrate-phosphate buffer pH 7.2, 25°C
purified protein [1] = substrate: O=C1c2c(O)cc(O)cc2O[C@H](c2ccc(O)c(O)c2)[C@H]1O
purified protein [2] = substrate: O=C1c2c(O)cc(O)cc2O[C@H](c2cc(O)c(O)c(O)c2)[C@H]1O
purified protein [3] = substrate: O=C1c2c(O)cc(O)cc2O[C@H](c2ccc(O)cc2)[C@H]1O

| Protein | Km (purified protein [1]) | Km (purified protein [2]) | Km (purified protein [3]) |
| --- | --- | --- | --- |
| CsDFRa (Camellia sinensis) (protein, full-length ORF in pET-32a, E. coli Rosetta (DE3), Ni Sepharose purified, vector tag removal not mentioned) MKDSVASATASAPGTVCVTGAAGFIGSWLVMRLLERGYIVRATVRDPANLKKVKHLLDLPKADTNLTLWKADLNEEGSFDEAIEGCSGVFHVATPMDFESKDPENEVIKPTINGVLSIIRSCTKAKTVKRLVFTSSAGTVNVQEHQQPVFDENNWSDLDFINKKKMTGWMYFVSKTLAEKAAWEAAKENNIDFISIIPTLVVGPFIMPTFPPSLITALSPITRNEGHYSIIKQGQFVHLDDLCESHIFLYERPQAEGRYICSSHDATIHDLAKLMREKWPEYNVPTEFKGIDKDLPVVSFSSKKLIGMGFEFKYSLEDMFRGAIDTCREKGLLPHSFAENPVNGNKV | 8.0 µM | 43.0 µM | 539.8 µM |
| CsDFRa (Camellia sinensis; N141A) (protein, full-length ORF in pET-32a, E. coli Rosetta (DE3), Ni Sepharose purified, vector tag removal not mentioned) MKDSVASATASAPGTVCVTGAAGFIGSWLVMRLLERGYIVRATVRDPANLKKVKHLLDLPKADTNLTLWKADLNEEGSFDEAIEGCSGVFHVATPMDFESKDPENEVIKPTINGVLSIIRSCTKAKTVKRLVFTSSAGTVAVQEHQQPVFDENNWSDLDFINKKKMTGWMYFVSKTLAEKAAWEAAKENNIDFISIIPTLVVGPFIMPTFPPSLITALSPITRNEGHYSIIKQGQFVHLDDLCESHIFLYERPQAEGRYICSSHDATIHDLAKLMREKWPEYNVPTEFKGIDKDLPVVSFSSKKLIGMGFEFKYSLEDMFRGAIDTCREKGLLPHSFAENPVNGNKV | 88.5 µM | 90.6 µM | 398.1 µM |
| CsDFRa (Camellia sinensis; N141D) (protein, full-length ORF in pET-32a, E. coli Rosetta (DE3), Ni Sepharose purified, vector tag removal not mentioned) MKDSVASATASAPGTVCVTGAAGFIGSWLVMRLLERGYIVRATVRDPANLKKVKHLLDLPKADTNLTLWKADLNEEGSFDEAIEGCSGVFHVATPMDFESKDPENEVIKPTINGVLSIIRSCTKAKTVKRLVFTSSAGTVDVQEHQQPVFDENNWSDLDFINKKKMTGWMYFVSKTLAEKAAWEAAKENNIDFISIIPTLVVGPFIMPTFPPSLITALSPITRNEGHYSIIKQGQFVHLDDLCESHIFLYERPQAEGRYICSSHDATIHDLAKLMREKWPEYNVPTEFKGIDKDLPVVSFSSKKLIGMGFEFKYSLEDMFRGAIDTCREKGLLPHSFAENPVNGNKV | 252.0 µM | 37.2 µM | – |
